Results taken from patent publication US20220356235A1 (STICHTING SANQUIN BLOEDVOORZIENING, published 2022).

B1: anti-FHR-1.3B4 (antibody, V domains shown)
VH: QVQLRQSGPGLVQPSQSLSITCTVSGFSLTNYGVYWVRQSPGKGLEWLGVIWSGGTTDYSAAFISRLSISKDNSKSQVFFKMNSLQADDTAIYYCARNFGNYAMDYWGQGTSVTVSS
VL: QIVLSQSPTILSASPGEKVTMTCRASSSVTYMHWYQQKPGSSPKPWIYATSNLASGVPARFSGSGSGTSYSLTISRVEAEDAATYYCQQRSSSNPLTFGAGTKLELK
notes: Mouse monoclonal from a hybridoma, raised against recombinant human FHR-1; also called aFHR-1 3B4
B2: FHR-1.14C4 (antibody, V domains shown)
VH: EVQLQQSGPELEKPGASVKISCKASGYSFTGYNMHWVKQSNGTSLEWIGKIDPYYGDTSYNQRFKGKATLTVDKSSSTAYMQLKSLTSEDSAVYYCARAFYRDYALDYWGRGTSVTVSS
VL: DIVMTQSPSSLTVTAGEKVTMSCKSSQSLFNSGNQKNYLTWYQQKPGQPPKLLIYWASTRESGVPDRFTGSGSGTDFTLTISSVQAEDLAVYYCQNDYSYPLTFGAGTKLELK
notes: Mouse monoclonal from a hybridoma, raised against recombinant human FHR-1
B3: human factor H, full length (other, UniProt P08603 19-1231, looked up)
chain: EDCNELPPRRNTEILTGSWSDQTYPEGTQAIYKCRPGYRSLGNVIMVCRKGEWVALNPLRKCQKRPCGHPGDTPFGTFTLTGGNVFEYGVKAVYTCNEGYQLLGEINYRECDTDGWTNDIPICEVVKCLPVTAPENGKIVSSAMEPDREYHFGQAVRFVCNSGYKIEGDEEMHCSDDGFWSKEKPKCVEISCKSPDVINGSPISQKIIYKENERFQYKCNMGYEYSERGDAVCTESGWRPLPSCEEKSCDNPYIPNGDYSPLRIKHRTGDEITYQCRNGFYPATRGNTAKCTSTGWIPAPRCTLKPCDYPDIKHGGLYHENMRRPYFPVAVGKYYSYYCDEHFETPSGSYWDHIHCTQDGWSPAVPCLRKCYFPYLENGYNQNYGRKFVQGKSIDVACHPGYALPKAQTTVTCMENGWSPTPRCIRVKTCSKSSIDIENGFISESQYTYALKEKAKYQCKLGYVTADGETSGSITCGKDGWSAQPTCIKSCDIPVFMNARTKNDFTWFKLNDTLDYECHDGYESNTGSTTGSIVCGYNGWSDLPICYERECELPKIDVHLVPDRKKDQYKVGEVLKFSCKPGFTIVGPNSVQCYHFGLSPDLPICKEQVQSCGPPPELLNGNVKEKTKEEYGHSEVVEYYCNPRFLMKGPNKIQCVDGEWTTLPVCIVEESTCGDIPELEHGWAQLSSPPYYYGDSVEFNCSESFTMIGHRSITCIHGVWTQLPQCVAIDKLKKCKSSNLIILEEHLKNKKEFDHNSNIRYRCRGKEGWIHTVCINGRWDPEVNCSMAQIQLCPPPPQIPNSHNMTTTLNYRDGEKVSVLCQENYLIQEGEEITCKDGRWQSIPLCVEKIPCSQPPQIEHGTINSSRSSQESYAHGTKLSYTCEGGFRISEENETTCYMGKWSSPPQCEGLPCKSPPEISHGVVAHMSDSYQYGEEVTYKCFEGFGIDGPAIAKCLGEKWSHPPSCIKTDCLSLPSFENAIPMGEKKDVYKAGEQVTYTCATYYKMDGASNVTCINSRWTGRPTCRDTSCVNPPTVQNAYIVSRQMSKYPSGERVRYQCRSPYEMFGDEEVMCLNGNWTEPPQCKDSTGKCGPPPPIDNGDITSFPLSVYAPASSVEYQCQNLYQLEGNKRITCRNGQWSEPPKCLHPCVISREIMENYNIALRWTAKQKLYSRTGESVEFVCKRGYRLSSRSHTLRTTCWDGKLEYPTCAKR
notes: mature; In the serum assays (C3b deposition, hemolysis) the FH is that of normal human serum; also called FH; full length FH
B4: anti-FHR-1.11E1 (antibody, V domains shown)
VH: QVQLKQSGPGLVQPSQSLSITCTVSGFSLTNYGVHWVRQPPGKGLEWLGVIWSGGNTDYNAAFISRLSISKDNSKSQVFFKMNSLQADDTAIYYCAKNGDYGYTMDYWGQGTSVTVSS
VL: DVVMTQTPLSLPVSLGDQASISCRSSQSLVHSNGNTYLHWYLQKPGQSPKLLIYKLSNRFSGVPDRFSGSGSGTDFTLKISRVEAEDLGVYFCSQSTHVPFTFGSGTKLEIK
notes: as for B2
B5: anti-FH.07 (antibody, V domains shown)
VH: QVQLQQSGPGLVQPSQSLSITCTVSDFSLARYGVHWIRQSPGKGLEWLGVIWSGGTADYNAAFISRLNINKDNSKSQVFFKMNSLQANDTAIYYCARNFGNYAVDYWGQGTS
VL: QIVLSQSPTFLSASPGEKVTVTCRASSSVKYMHWYQQKPGASPKPWIFATSNLASGVPARFSGSGSGTSYSLTISRVEAEDAATYYCQQWSIIPPTFGNGTKLELK

Experiments:
[1] = target: T1, recombinant human FH fragment CCP 19-20 (human, UniProt P08603 1107-1231); experiment: competition ELISA: mAb captured on RM-19 coated plate, FH-bt mixed with unlabelled CCP 19-20
T1 construct: domain: CCP 19-20
T1 sequence (looked up): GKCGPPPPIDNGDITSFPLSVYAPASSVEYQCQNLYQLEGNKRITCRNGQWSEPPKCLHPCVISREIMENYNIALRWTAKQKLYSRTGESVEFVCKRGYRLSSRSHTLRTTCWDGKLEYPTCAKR
Description: (§1) The location of the epitope of anti-FHR-1 mAbs was determined using recombinant human FH fragments composed of multiple CCP domains (15-18, 15-19, 18-20 or 19-20). In short, anti-FHR-1 mAbs were captured on a RM-19 coated microtiterplate to assure optimal binding conformation. Next, biotinylated FH, mixed with a 100-fold higher concentration of the indicated unlabeled recombinant FH-fragments, was incubated on the plate for 1 hour. Binding of biotinylated FH was determined by incubation with 0.01% (v/v) streptavidin conjugated with poly-HRP, in HPE for 30 min. The ELISA was further developed as described above. To determine whether the anti-FHR-1 mAbs competed with anti-FH.07 for the binding of FH, a similar set-up was used. In short, mAbs were directly coated to the plate and binding of biotinylated FH (FH-bt) in the absence or presence of a 10-fold higher concentration of indicated mAbs was assessed by ELISA as described above.

[2] = target: T2, recombinant human FH fragment CCP 18-20 (human, UniProt P08603 1046-1231); experiment: SPR (Biacore T200), mAb captured on ProtA or ProtG chip, FH CCP18-20 flowed over, 1:1 model
T2 construct: domain: CCP 18-20; also called fragment of FH comprised of domain 18-20
T2 sequence (looked up): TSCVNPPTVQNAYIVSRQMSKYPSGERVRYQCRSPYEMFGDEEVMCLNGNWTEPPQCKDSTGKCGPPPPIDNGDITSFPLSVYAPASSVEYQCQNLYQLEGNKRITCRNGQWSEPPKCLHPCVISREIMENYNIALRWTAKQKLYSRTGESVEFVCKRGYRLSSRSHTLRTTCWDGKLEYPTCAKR
Description: (§2) Surface plasmon resonance (SPR) experiments were performed using a BiaCore T200 (GE Healthcare) and CM5 sensor chips (GE Healthcare) in accordance with the manufacturer's instructions. In short, to determine its affinity, anti-FH.07, anti-FHR-1 3B4 or anti-FHR-1 8E4 were captured onto a ProtA or ProtG coupled chip and either full length FH or a fragment of FH comprising domain 18-20 was flown over the captured moAB at decreasing concentrations.

[3] = target: B3; experiment: SPR (Biacore T200), mAb captured on ProtA or ProtG chip, full length FH flowed over, 1:1 model
Description: as §2

[4] = target: B3; experiment: SPR, mAb captured on a ProtA or ProtG chip, full length FH flowed over, 1:1 binding model
Description: as §2

[5] = target: B3; experiment: cell-based or functional assay
[6] = target: T3, recombinant human FH fragment CCP 15-18 (human, UniProt P08603 868-1104); experiment: competition ELISA: mAb captured on RM-19 coated plate, FH-bt mixed with 100-fold excess of unlabelled CCP 15-18
T3 construct: domain: CCP 15-18
T3 sequence (looked up): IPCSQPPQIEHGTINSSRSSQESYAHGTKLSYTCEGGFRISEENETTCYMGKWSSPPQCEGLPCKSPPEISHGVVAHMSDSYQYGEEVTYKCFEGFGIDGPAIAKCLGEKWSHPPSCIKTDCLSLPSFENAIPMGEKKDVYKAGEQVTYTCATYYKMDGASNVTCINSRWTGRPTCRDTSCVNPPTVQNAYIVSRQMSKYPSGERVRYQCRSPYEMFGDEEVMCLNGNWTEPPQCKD
Description: as §1

[7] = target: T4, recombinant human FH fragment CCP 15-19 (human, UniProt P08603 868-1165); experiment: competition ELISA: mAb captured on RM-19 coated plate, FH-bt mixed with 100-fold excess of unlabelled CCP 15-19
T4 construct: domain: CCP 15-19
T4 sequence (looked up): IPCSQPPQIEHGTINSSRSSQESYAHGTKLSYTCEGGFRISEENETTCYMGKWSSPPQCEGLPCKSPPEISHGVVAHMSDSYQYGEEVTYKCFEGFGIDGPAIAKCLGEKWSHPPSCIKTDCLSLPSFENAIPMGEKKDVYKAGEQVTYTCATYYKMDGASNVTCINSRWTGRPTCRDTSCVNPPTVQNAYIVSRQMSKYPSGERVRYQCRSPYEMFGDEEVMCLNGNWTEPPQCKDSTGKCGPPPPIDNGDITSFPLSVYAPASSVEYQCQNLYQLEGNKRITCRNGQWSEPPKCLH
Description: as §1

[8] = target: T2, recombinant human FH fragment CCP 18-20; experiment: competition ELISA: mAb captured on RM-19 coated plate, FH-bt mixed with 100-fold excess of unlabelled CCP 18-20
Description: as §1

[9] = target: B3; experiment: competition ELISA: mAb captured on RM-19 coated plate, FH-bt mixed with excess unlabelled full length FH; % of FH-bt binding without competitor
Description: as §1

C3b = target: T5, C3b (UniProt P01024 23-667; P01024 749-1663, limits assumed); experiment: SPR (Biacore T200), C3b amine-coupled to CM5 chip, FH alone injected (10-0.01953 µM), 37 °C, equilibrium analysis; FH alone, no Fab′
T5 construct: C3b has two chains (beta and alpha') derived from C3; also called purified C3b (Complement Technologies)
T5 sequence (P01024 23-667 limits assumed, chain 1 of 2): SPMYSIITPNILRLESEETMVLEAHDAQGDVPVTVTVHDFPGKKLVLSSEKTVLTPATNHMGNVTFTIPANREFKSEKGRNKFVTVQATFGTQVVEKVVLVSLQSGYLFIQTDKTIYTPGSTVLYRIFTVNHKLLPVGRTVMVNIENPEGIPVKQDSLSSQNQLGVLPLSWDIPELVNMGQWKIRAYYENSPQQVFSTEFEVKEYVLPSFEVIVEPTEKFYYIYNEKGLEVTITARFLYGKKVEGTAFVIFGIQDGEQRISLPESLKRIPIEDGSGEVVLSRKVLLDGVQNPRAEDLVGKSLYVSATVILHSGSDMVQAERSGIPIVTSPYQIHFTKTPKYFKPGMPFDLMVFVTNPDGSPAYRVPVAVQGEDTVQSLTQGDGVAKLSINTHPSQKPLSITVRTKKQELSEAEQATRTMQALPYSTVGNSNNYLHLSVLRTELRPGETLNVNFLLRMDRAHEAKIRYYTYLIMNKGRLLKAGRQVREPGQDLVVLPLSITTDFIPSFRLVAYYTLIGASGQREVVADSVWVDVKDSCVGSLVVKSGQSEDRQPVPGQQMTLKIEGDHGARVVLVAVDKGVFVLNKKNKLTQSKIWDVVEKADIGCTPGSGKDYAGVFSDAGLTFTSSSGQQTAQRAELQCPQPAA
T5 sequence (P01024 749-1663 limits assumed, chain 2 of 2): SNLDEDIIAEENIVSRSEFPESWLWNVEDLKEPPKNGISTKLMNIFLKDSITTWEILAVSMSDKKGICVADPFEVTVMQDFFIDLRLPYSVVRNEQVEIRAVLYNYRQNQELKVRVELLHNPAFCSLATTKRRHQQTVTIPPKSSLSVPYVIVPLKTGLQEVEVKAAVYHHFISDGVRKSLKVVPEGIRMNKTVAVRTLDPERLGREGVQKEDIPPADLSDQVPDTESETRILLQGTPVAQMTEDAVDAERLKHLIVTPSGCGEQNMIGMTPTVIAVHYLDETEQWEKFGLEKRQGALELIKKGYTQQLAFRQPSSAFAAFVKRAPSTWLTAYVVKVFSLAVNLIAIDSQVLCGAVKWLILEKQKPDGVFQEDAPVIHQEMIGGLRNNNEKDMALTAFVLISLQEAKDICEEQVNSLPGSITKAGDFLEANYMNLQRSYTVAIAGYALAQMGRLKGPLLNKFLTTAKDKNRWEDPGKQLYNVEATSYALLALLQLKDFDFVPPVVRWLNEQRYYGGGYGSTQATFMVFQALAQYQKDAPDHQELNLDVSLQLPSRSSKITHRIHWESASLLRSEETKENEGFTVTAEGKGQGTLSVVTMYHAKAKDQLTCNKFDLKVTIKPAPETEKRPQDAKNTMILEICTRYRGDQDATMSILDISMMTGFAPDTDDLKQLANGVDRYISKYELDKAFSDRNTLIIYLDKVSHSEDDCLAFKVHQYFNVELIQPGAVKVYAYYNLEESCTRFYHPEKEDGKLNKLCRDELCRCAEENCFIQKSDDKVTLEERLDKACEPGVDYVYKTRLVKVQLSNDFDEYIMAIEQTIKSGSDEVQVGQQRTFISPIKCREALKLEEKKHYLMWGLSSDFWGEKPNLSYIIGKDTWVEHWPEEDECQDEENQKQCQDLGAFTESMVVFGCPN
Description: Binding of FH to C3b in the presence of the anti-FH moAbs was determined by surface plasmon resonance using a Biacore T200 instrument (GE Healthcare, Little Chalfont, UK). Purified C3b (Complement Technologies) was immobilized onto a flow cell of a CM5 Biacore Sensor Chip (GE Healthcare) using standard amine coupling. The remaining flow cell was used as reference surface and prepared by performing a coupling reaction without the addition of any protein. A response of 2000 response units (RUs) was obtained after coupling with C3b. SPR experiments were performed at 37° C. using a flow rate of 10 μl/min and in phosphate buffered saline pH 7.4 (PBS, Orphi Farma) supplemented with 0.01% (w/v) Tween-20 (Merck) (PBS-T).
To determine the effect of the antibodies without interference of possible cross-linking via the moAb, recombinantly produced Fab′ fragments of the moAbs were used. Fab′ fragments were mixed with plasma purified FH (pdFH). […] Each Fab′ fragment was also injected without addition of FH to determine any interactions of the Fab′ fragments with the surfaces. The pdFH injection was followed by a dissociation of 60 seconds and surface was regenerated between each cycle by a single injection of 1 M NaCl (Merck).
Data was analyzed using Scrubber 2 (Biologic Software) affinities were determined by equilibrium analysis.

Binder	binding result [1]	Kd [2] [nM]	koff [2] [s⁻¹]	kon [2] [M⁻¹ s⁻¹]	Kd [3] [nM]	koff [3] [s⁻¹]	kon [3] [M⁻¹ s⁻¹]	Kd [4] [nM]	IC50 (nM), Hemolytic assay [5] [nM]	IC50 (nM), LPS C3b dep. assay [5] [nM]	binding result [6]	binding result [7]	binding result [8]	binding result [9]	Kd (C3b) [nM]
B1	no binding	0.00544	1.27e-05	2.39e+06	5.8	9.1e-05	15800	5.77	94	38.4	–	–	–	–	–
B2	no binding	–	–	–	–	–	–	–	–	–	binds	binds	binds	binds	–
B3	–	–	–	–	–	–	–	–	–	–	–	–	–	–	6000
B4	no binding	–	–	–	–	–	–	–	–	25	–	–	–	–	–
B5	no binding	0.32	0.00027	833000	29.7	0.000181	6090	–	153	38.8	–	–	–	–	–
